Laboratory results as given in article PMC2631628.

Columns and labels:
hnRNP A1 [1] = molecular target: hnRNP A1 (UniProt P09651); assay: competition; conditions: Footprinting: RNA refolded in 2 mM MgCl2, 80 mM NaCl, 20 mM Tris-HCl pH 7.2; probing at 37 C for 10 min; EMSA and pull-down buffers not in the material
hnRNP A1 [2] = molecular target: hnRNP A1 (UniProt P09651); assay: footprinting (Pb(II)); conditions: Footprinting: RNA refolded in 2 mM MgCl2, 80 mM NaCl, 20 mM Tris-HCl pH 7.2; probing at 37 C for 10 min; EMSA and pull-down buffers not in the material

Sequence of hnRNP A1 (P09651 whole entry): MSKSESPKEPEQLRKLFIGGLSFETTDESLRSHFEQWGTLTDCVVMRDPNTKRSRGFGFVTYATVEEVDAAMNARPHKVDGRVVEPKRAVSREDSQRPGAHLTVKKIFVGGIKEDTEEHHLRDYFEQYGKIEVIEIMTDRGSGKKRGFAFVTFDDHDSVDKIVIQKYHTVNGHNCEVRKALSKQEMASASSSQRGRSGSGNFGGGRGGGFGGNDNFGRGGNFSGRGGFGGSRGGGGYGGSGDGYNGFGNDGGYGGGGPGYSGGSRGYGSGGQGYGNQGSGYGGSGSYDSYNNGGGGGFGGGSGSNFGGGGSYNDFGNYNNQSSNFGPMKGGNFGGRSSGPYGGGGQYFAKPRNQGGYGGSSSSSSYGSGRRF

Sequence: GGCGUGCAGGGCCUGCUGAUGUUGAGUGCUUUUUGUUCUAAGGUGCAUCUAGUGCAGAUAGUGAAGUAGAUUAGCAUCUACUGCCCUAAGUGCUCCUUCUGGCAUAAGAAGUUAUGUAUUCAUCCAAUAAUUC [pri-miR-18a]
- binding (hnRNP A1 [1]): binds

Sequence: GGUGUUCUAAGGUGCAUCUAGUGCAGAUAGUGAAGUAGAUUAGCAUCUACUGCCCUAAGUGCUCCUUCUGGCA [pri-miR-18a_73nt]
- binding (hnRNP A1 [2]): binds
